Measured values published in patent US12397037B2, “Methods and compositions for immunomodulation” (CHILDREN'S MEDICAL CENTER CORPORATION, priority 2014, dated 2025).

Key:
Assay type in all cases: cell-based, human
[1] = system: U251 glioblastoma cells, a melanocyte cell line, Jurkat T lymphocytes, and endothelial cells; experiment: Western blot in other cell lines expressing NRP2; conditions: SEMA3F 30 minutes
Description: FIGS. 34A-34D depict analysis of intracellular signaling pathway regulated by SEMA3F. FIG. 34A depicts a Western blot of the expression of pAkt, pmTOR and pS6K in U87MG cells treated with SEMA3F or PBS for 60 minutes and. FIG. 34B depicts a Western blot. U87MG cells were transfected with control or Plexin A1-specific siRNA (20 nM). After 48 hours, cells were treated with SEMA3F (640 ng/ml) for 30 and 60 minutes, and were analyzed by Western blot. FIG. 34C depicts NRP2 and Plexin A1 expression analyzed by Western blot with multiple cell lines. FIG. 34D depicts a Western blot of multiple NRP2-expressing cell lines were treated with SEMA3F for 30 minutes. All data presented are representative of 3 independent experiments.
SEMA3F inhibits Akt, mTOR, and S6K phosphorylation. To determine the effect of SEMA3F on intracellular signaling responses, levels of phosphokinases in the NRP2-expressing human glioblastoma cell line U87MG were profiled.
Western blotting: Proteins within each sample were separated by SDS-PAGE and transferred to nitrocellulose membranes. […] After washing with TBS-T, membranes were incubated with the appropriate horseradish peroxidase-conjugated secondary antibody, and immunoreactivity was detected by using ECL detection reagents.

Jurkat T cells = experiment: Western blot of pAkt (S473) in NRP-2-expressing Jurkat T cells; conditions: 30 min
Description: FIG. 20 depicts the results of Western blots of NRP-2-expressing Jurkat T cells treated with increasing concentrations of SEMA3F for 30 min. Expression of pAkt (S473) was evaluated by Western blot.
In addition, as illustrated in FIG. 20 NRP-2-expressing Jurkat T cells were treated with increasing concentrations of SEMA3F for 30 min. and expression of pAkt (S473) was evaluated by Western blot. Expression is reduced following treatment with high concentrations of SEMA3F (>600 ng/ml)
(§1) Western blotting: Proteins within each sample were separated by SDS-PAGE and transferred to nitrocellulose membranes. The membranes were blocked with 4% skimmed milk in TBS-T (0.1% Tween 20 in tris-buffered saline [TBS]) for 30 minutes, followed by incubation with the primary antibody. After washing with TBS-T, membranes were incubated with the appropriate horseradish peroxidase-conjugated secondary antibody, and immunoreactivity was detected by using ECL detection reagents.

HUVEC = experiment: Western blot of pAkt in HUVEC after PTEN siRNA knockdown; conditions: PTEN siRNA 20 nM, SEMA3F 1800 ng/ml
Description: FIG. 36A depicts a western blot. HUVEC were treated with SEMA3F (1800 ng/ml) for 30 minutes and were subjected to immunoprecipitation and Western blot analyses with anti-NRP2 and -PTEN as illustrated. FIG. 36B depicts a western blot. HUVEC were transfected with control-, or Plexin A1-specific siRNAs (20 nM), prior to SEMA3F treatment (1800 ng/ml); lysates were subjected to immunoprecipitation and Western blot analyses with anti-NRP2 and anti-PTEN as illustrated. FIG. 36C depicts a western blot. HUVEC were transfected with control-, or PTEN-specific siRNAs (20 nM), prior to SEMA3F treatment (1800 ng/ml); lysates were analyzed by Western blot. FIG. 36D depicts a western blot. U87MG cells were transfected with control or GIPC1-specific siRNA (20 nM). After 48 hours, cells were treated with SEMA3F (200, 600, 1800 ng/ml, from left to right) for 30 minutes, and were analyzed by Western blot. FIG. 36E depicts a western blot. U87MG cells were treated with U0126 (10 μM) for 30 minutes prior to combination with 30 minutes and 60 minutes of SEMA3F (640 ng/ml). Akt and MAPK signaling was analyzed by Western blot. All data presented are representative of 3 independent experiments.
It is thus likely that SEMA3F inactivates mTORC2 via upstream inhibition of PI-3K. […]

U87MG cells = experiment: Western blot of PI-3K/Akt-mTOR and MAPK signaling in U87MG cells
Description: U87MG which express NRP-2 were used for this assay.
To determine the effect of SEMA3F on intracellular signaling responses, levels of phosphokinases in the NRP2-expressing human glioblastoma cell line U87MG were profiled.
as §1

[2] = U87MG cells, 640 ng/ml time course

B1: SEMA3F: Human recombinant full-length His-Myc-tagged SEMA3F, secreted by transfected 293T cells and purified; class 3 semaphorin, NRP-2 ligand (protein, listed as Homo sapiens)
chain: MLVAGLLLWASLLTGAWPSFPTQDHLPATPRVRLSFKELKATGTAHFFNFLLNTTDYRILLKDEDHDRMYVGSKDYVLSLDLHDINREPLIIHWAASPQRIEECVLSGKDVNGECGNFVRLIQPWNRTHLYVCGTGAYNPMCTYVNRGRRAQATPWTQTQAVRGRGSRATDGALRPMPTAPRQDYIFYLEPERLESGKGKCPYDPKLDTASALINEELYAGVYIDFMGTDAAIFRTLGKQTAMRTDQYNSRWLNDPSFIHAELIPDSAERNDDKLYFFFRERSAEAPQSPAVYARIGRICLNDDGGHCCLVNKWSTFLKARLVCSVPGEDGIETHFDELQDVFVQQTQDVRNPVIYAVFTSSGSVFRGSAVCVYSMADIRMVFNGPFAHKEGPNYQWMPFSGKMPYPRPGTCPGGTFTPSMKSTKDYPDEVINFMRSHPLMYQAVYPLQRRPLVVRTGAPYRLTTIAVDQVDAADGRYEVLFLGTDRGTVQKVIVLPKDDQELEELMLEEVEVFKDPAPVKTMTISSKRQQLYVASAVGVTHLSLHRCQAYGAACADCCLARDPYCAWDGQACSRYTASSKRRSRRQDVRHGNPIRQCRGFNSNANKNAVESVQYGVAGSAAFLECQPRSPQATVKWLFQRDPGDRRREIRAEDRFLRTEQGLLLRALQLSDRGLYSCTATENNFKHVVTRVQLHVLGRDAVHAALFPPLSMSAPPPPGAGPPTPPYQELAQLLAQPEVGLIHQYCQGYWRHVPPSPREAPGAPRSPEPQDQKKPRNRRHHPPDT
modifications: His-Myc tag
notes: Human recombinant full-length His-Myc-tagged SEMA3F, secreted by transfected 293T cells and purified; class 3 semaphorin, NRP-2 ligand
- Akt (S473) and S6K phosphorylation [1]: inhibited
- concentration of SEMA3F at which expression of pAkt (S473) is reduced (Jurkat T cells): > 600 ng/ml
- pAkt expression following siRNA knockdown of PTEN (HUVEC): failed to inhibit pAkt expression
- pSGK1 (S422) and pPKC (S657) (U87MG cells; U87MG cells): inhibited
- pS6K and pS6 in 2DAkt transfected cells (U87MG cells; U87MG cells transfected with constitutively active Akt (2DAkt), SEMA3F 640 ng/ml): no change in expression
- persistence of inhibitory effect (U87MG cells; [2]): greater than 60 minutes
- time within which pAkt (T308 and S473), pmTOR, pS6K and pS6 were inhibited (U87MG cells; [2]): 10-20 minutes
- pAkt (S473) in 2DAkt transfectants (U87MG cells; U87MG cells, SEMA3F 640 ng/ml): reduced the level of pAkt (S473)
- pAkt (T308 and S473) and pS6K (U87MG cells; U87MG cells, SEMA3F 640 ng/ml for 60 minutes vs untreated): reduced levels of pAkt (T308 and S473) and pS6K
- inhibition of expression of pAkt (S473) (densitometry) (U87MG cells; U87MG cells, SEMA3F ~640 ng/mL, after 10 min): > 80%
- pAkt and pS6K after rapamycin pretreatment (U87MG cells; U87MG cells, rapamycin 30 minutes, then SEMA3F and rapamycin for 60 minutes): reduced levels of both pAkt and pS6K
- pAkt, pS6K and pS6 in NRP2 and Plexin A1-siRNA transfected cells (U87MG cells; U87MG cells, siRNA 20 nM, SEMA3F 640 ng/ml): failed to inhibit
- concentration at which peak effects were observed (U87MG cells; U87MG cells, signaling): ~600 ng/mL
- expression of pERK1/2 (U87MG cells; U87MG cells, ~640 ng/mL): markedly reduced
- time of peak effect on pERK1/2 (U87MG cells; U87MG cells, ~640 ng/mL): ≤ 30 mins
- pAkt (S473), pAkt (T308), pmTOR and pS6K (U87MG cells; U87MG cells, ~640 ng/mL, by 30 min): most significant reduction
- pAkt and pS6K signaling at the lowest concentration (U87MG cells; U87MG, SEMA3F 200 ng/ml, 30 minutes): inhibits pAkt and pS6K signaling
